Results on 22 sequences are retold here after a protein production outcome set (Wang et al. 2014).

The data set in a line: label from the status in PepcDB records.
Regarding “MFTGFNWQQMISAFIVLFAVIDIIGSIPIIINLKEKGKDVNATKATVISFALLIGFFYAGDMMLKLFHVDIESFAVAGAFVIFLMSLEMILDIEIFKNQGPIKEATLVPLVFPLLAGAGAFTTLLSLRAEYASVNIIIALILNMLWVYFVVSMTGRVERFLGKGGIYIIRKFFGIILLAISVRLFTANITLLIEALHKS”, the protein production entry is “failed”. Next, “MFTINTKSQLPIYEQIVQKIKEQVVKGILQEGEKILSIREFASRIGVNPNTVSKAYQELERQEVIVTVKGKGTFIADQTEKNSSPKKLAETKIKLKEIILDLVYLGINVEEIHKLSVEYSQDIIGGDKI”: “failed”; “MFTLFAIQFFTTAAAVAFLLTELMGGFMLLFDWKNSGQKIMTYVAPIWEVTGTFLAMFVVETDATFAGILIPAAFAFAALLLIFLILFIVRNVAIILGEFAGSRKIFTDRQLYYIYVIATLLISVVFLAFSSAIISGNGVKIDIAGNPVDSLLSVSNAEISFNLASWLAGPGDILFVVSAALIAFGLSPVFYDVDRFSTYGVISSVIGFILGIVSFVQMGVHISPIIIIPAIIIIGVPILYRIGLAKKILTNKALFIVLLIVSIYSLYFTVYPSAMNGKLPLSQIITTGPMVIGTILTTVVGFTLLAFMLSLYVYVNYRSSRNQMTTLPK”: “failed”; “MFVGVDHAGRDWSWKEPGSTKACRNFMITLFAEWALPATTGQASGRRAMARKFMVPALAVLAFAIAAPAFAQVPANIAKAVADPSRPAAETARDAARRPGEILAMAELKPGDTVVDYIMGGGYFTRIISGAVGPQGVVYAYQPAEFIRFAARYGESLKAVTAALANSKPLDGPITALDLPDNVDAVITVQNYHDMHLKPFPTDTAAKANAEIFKSLKPGGVFLVIDHSAIAGSGITAADTLHRIDIAAVKQEVEAAGFKLEAESGLLADPADARTINVFDPAIRGKTDQFILKFRKPK”: “failed”. In the case of “MFVHLSVELMQHLSAAALAFTVVTYVVLDGTDLGVGMLFAANRSDADRHLMAYSILPVWDGNETWLVLGGGSLLAMFPSAYAIFLNATYVPLVVMLLALICRGVALEYRDQLGTDRRRRVLDVVFMVASLLATFCQGVVAGTYLAGVAHRAGQYAGNGREWLQPFPLFCGVALVVGYLLLGACWLVWRSEGQLQQRARHQARVLGIVLGALLTLGVVWLARLTPIYAQRLGDAHISVPLGTSVLGLMVAMYLLMRSRHAFLPLFAVLGVVVATYAGVLAIVYPMVLPPDITLAQAASPPASQGVMLLAFAVLVPCTLAYSSYGFYVFRGKVKPRGHAAE”, the protein production entry is on record as “failed”.

As for “MFVNSNGYNLGVREDEVVVNDVDLPPWAKKPEDFVRINRMALESEFVSCQLHQWIDLIFGYKQRGPEAVRALNVFHYLTYEGSVNLDSITDPVLREIPEAYFIRDPHTFLLTKDFIKAMEAQIQNFGQTPSQLLIEPHPPRSSAMHLCFLPQSPLMFKDQMQQDVIMVLKFPSNSPVTHVAANTLPHLTIPAVVTVTCSRLFAVNRWHNTVGLRGAPGYSLDQAHHLPIEMDPLIANNSGVNKRQITDLVDQSIQINAHCFVVTADNRYILICGFWDKSFRVYSTETGKLTQIVFGHWDVVTCLARSESYIGGDCYIVSGSRDATLLLWYWSGRHHIIGDNPNSSDYPAPRAVLTGHDHEVVCVSVCAELGLVISGAKEGPCLVHTITGDLLRALEGPENCLFPRLISVSSEGHCIIYYERGRFSNFSINGKLLAQMEINDSTRAILLSSDGQNLVTGGDNGVVEVWQACDFKQLYIYPGCDAGIRAMDLSHDQRTLITGMASGSIVAFNIDFNRWHYEHQNRY”, the protein production entry is reported as “failed”. Consider “MFVTLQTVQESEKEILRNLYALYLHDLSTFTSNITIGANGFFEYEDLHMFWVNDGITPYFIKSDNEIVGFLLLLERPFLKKENDFGINDIFILNQYKGKGIGKQVIESLLKEKRGQYFVIELVKNVPAVSFWKKVYRELNIEFDEKIQLIDDEECLVQTFEI”, for which the protein production result is given as “failed”. Consider “MFYFMTLSFIIMPALGCFLIGLVLAKSDRWTFSWILSLIGLVAFISSFWHIERADLWFMLSYSFGPFLMGFGFTWDLSNKRRMQLLLLGLFFLIFFMILYYLIVRILNTAVV”, for which the protein production result is “failed”. Next, “MFYILNNVLKNIKTLDNVKSKFFLKDSFLKNKLKANNLDDNLSSHIFFNEIFVSLRDDEKKEEHKKVLLFNKVRNDKKHRKRAFQKRGYWKKMHYFIRKNNMMSYAFKVQNIDYEKIKKLKRGEVYSN”: “failed”.

Take “MGAVTDDEVIRKRLLIDGDGAGDDRRINLLVKSFIKWCNSGSQEEGYSQYQRMLSTLSQCEFSMGKTLLVYDMNLREMENYEKIYKEIECSIAGAHEKIAECKKQILQAKRIRKNRQEYDALAKVIQHHPDRHETLKELEALGKELEHLSHIKESVEDKLELRRKQFHVLLSTIHELQQTLENDEKLSEVEEAQEASMETDPKP”: the protein production entry was “failed”. Next, “MGCGFSRQHVVKTNVSSFDRELLDLKIQRDSLQQYEQRLSDSLKNYIKLARRLVAENQRQQALVVLQVKHALQKSIEKAQNMRFNLEQVLSEIELKQIETDYVLKLRTGTKLLQSIQKTLSIEEIEHLLEETKEAIEFQNKVTEVLGSFSLMEIDESCEEELEQLETAMFPPVPKRLEKTMTPQVTENMQVKSETAKEYSKQESILLPS”: “not failed”; “MGCVRDLTQRGMRQGAKPVRYFGERTDVSDLLAHTLQTVADILGPHGPATKAAEHSYTPNDYSIHFFLQLAVILLACRVTGWFGKKFLAQPQVVGEMIAGVVLGPSLLGLLFPDFQLSLFPKETRNILYVGAQLGVGLYMFLVGASFQAGHFKTKARSAMSVSFAGIAAPFAIAVIITPFLLKVPGLFAPTITPGAATLFMGACIALTAFPMLARIINERGLQKTSLGTLSLTAGAFDDAVSWCVLAVVLAMFGGGPGVAVLAIGGGLLWVLFVLTLGPKILAPLGRMVEREGELSAHALALVILAFCVSAFLMDAVGIHAIFGGFIMGVVMPRGLLTQELKKKVEPLVVVLLLPMFFTYSGLNTRLDMVNSLDLLLIALGILACSILAKWGACYVAARATGEDHATAMGIGALMNSRGLMELIIINIGLQKGIIGPTLFAMLVLMAIVTTMMASPLFEIVYGKKARERGELDAVPDAKRA”: “failed”. With “MGCYHPLSGTDGTLMRHTLPIAPQFYVTAPQPCPYLAGRMERKLFTALQGEGAERLNNALSQQGFRRSQNVLYRPSCADCAACLSARIDVSAFRASRSQKRAMRRNAHLTRRATSPWATDEQYELFRRYLDSRHADGGMADMDVFEFAAMIEETPIRSRVIEYAHRDTRALIGVSLTDVLDDGLSMVYSFYDPDLHRDSLGTHMILDHIAIAREAGLPYVYLGYWVPGSPKMGYKSRFSGLEIYLGGRWQAMTDPEAHDAIRHPLSTDPIAEQVANIQLPDRWPTGD”, the protein production result is given as “failed”. “MGCYHPLSGTDGTLMRHTLPIAPQFYVTAPQPCPYLAGRMERKLFTALQGEGAERLNNALSQQGFRRSQNVLYRPSCADCAACLSARIDVSAFRASRSQKRAMRRNAHLTRRATSPWATDEQYELFRRYLDSRHADGGMADMDVFEFAAMIEETPIRSRVIEYAHRDTRALIGVSLTDVLDDGLSMVYSFYDPDLHRDSLGTHMILDHIAIAREAGLPYVYLGYWVPGSPKMGYKSRFSGLEIYLGGRWQAMTDPEAHDAIRHPLSTDPIAEQVANIQLPDRWPTGDLEHHHHHH”: the protein production result was “failed”. Take “MGDPFLIGGVIIACFVAFNIGGATTGPAFGPAVGANVLSKTTAGALMAVAFFGGAYTIGRRVVDTLGTELVHDPSVFTLEASIIVLFFIGGALLVGNLSGAPASTSMTAVGAIIGLGLASGELNFAVVGEILAWWILSPIIGFWLAVMVGRYGYEALDRRVAIEQSDGPLLAFERVELGRWPVVRLRESPVVRMERISPKLWPALGPNTSWREAVGTAVLVSIGFLMAFSSGTSNIANAIAPLVGSGALAMNPGILIGCGAVAVGALTIARRTMETLGNDITDLPLTAAIVVALLSSLIIIALSALGIPASFVVVATLCIIGLGWGRSTQAVSVAEAVRGDVSPQVSVGALARGDDATVGTVRSQSAPQGASRRTAPVRSDLFDPGTSVRVVLMQNVVPLLATGGSYLTFWLLPVGG”: the protein production entry is “failed”. Under “MGDRVNLEGIVIDIEQTNDQLSFNVTDENESVPVVYDGPMPETMSVGRTVVAKGYYNGSVVEAESLSIRAHEGLEHHHHHH” stands “not failed”; under “MGEAAKDQTEEVIQAWYLDNKEEDQKLPHHKDPKEFVSLDKLAELGVLCWRLDADNYETDEELKRIRESRGYSYMDLCEVCPEKLPNYEEKVKMFFEEHLHIDEEIRYCLAGSGYFDVRDLNDIWIRVWVKKGGLIVFPAGIYHRFTVDSDNYMKAMRLFVGGPVWTAYNRPHDHLPARKAYMKKFLKVIGDRNIDASA”, “failed”; under “MGEAATKSDRQQNQTRLWLNILRLHGLVFGDLNRQLLDETGLSLAKFDAMAQLARNPDGLSMGKLSGALKVTNGNVSGLVNRLIKDGMVVKAMSADDRRSFSAKLTDAGLTTFKQASEAHNRILAELLRAVSDQDMVEASAALRGILESMQTGASLD”, “not failed”. Under “MGEIRNYIKLILIGVAILVTVTMIISATGCDILPPPASAIKPPQYINASSGEVEDPKAIARRFLTPGTYFSYPTHPRNADAVWEVDIDGDGRAELLTLYRGRDLKNNGVEVFGVFILKQDENHEWQIFWEQQYTANIVALDWADVRDITGDNYPELLIGWNIGYRIGSNLDIYSLKEEDKPRLISSIKYSEIVGIEDRRGINNEIKPVLMMYLFDEEMYESENEGRKDEYFHILQWDYKEWMGGGLVEADDFYASYYVNVIEDLKESLERYSNNYYQWYILALAQLRSGKPMDALESVGKVLEITQRYINRHGERTVKEVFKYQKKARILKAAAYIKMGKYHESIIESNYVLGNYDIDDKELAQIYLNLGYAYAGLKQYEMAGTYFNKSCETAETVYKEGTALYLLNSYKAKKQLEYIKPFLTSSH” stands “failed”; under “MGEKPGTRVFKKSSPNCKLTVYLGKRDFVDHLDKVDPVDGVVLVDPDYLKDRKVFVTLTCAFRYGREDLDVLGLSFRKDLFIATYQAFPPVPNPPRPPTRLQDRLLRKLGQHAHPFFFTIPQNLPCSVTLQPGPEDTGKACGVDFEIRAFCAKSLEEKSHKRNSVRLVIRKVQFAPEKPGP”, “failed”. For the sequence “MGEKVSIILTSYNKPDYLQKAIESVIQQTHDLWELFIMDDHSNAETTAVIHKYLHDRRIQYHNSFVHPADRLKTARYATLINSALPFADGDYISYLTDDTVYHPERLSRMVQEFSHKPEAQAVYSKQKVVHVNERGEEISHFYRNANAVLDQAAFQVDHCSVMHRRSLLNLIHHKFGGYWDDDMKHWNHGDAIFWARLNNFTPFLPINEVLDTTYKTPDSFQNAYRFLPADLIDGSFVKGSDQNVYFFDQGVRHPVGEKWGFLYLNRTVAVPDPYLFQYRIGKILNIPNYILVKEADHPAIFYIEAGKKRRIVDQYAFQFYQFQRKDIVTIGKEEMETLPEGPPITWKRSELIKNPPGRRLFFIEREPFLFLNGVFHPISEQVTRKFFLHQKPISASFRNIQQFPIGKPFYPVYDEIIKKLNIATELEHHHHHH”, the protein production result is “not failed”. Turning to “MGEMENIIYSIYHPTILVGFAIGILSLLAIGFQKNDLHALILTDVVECAMLIIIAGVGTDLAEALILPGLVVSLAELLAVSEVLITRKYLKSKRPKPKSYKLFEEFKLPLYTGELKYDIHMEILKTSPKFLAIILIVYGAILSGFTGGAVIATGLLFYALSQRVIGVEISEELKTMWEGISGLSGIAWALWIFGFIGFFVFPDKWLLCLLMAGLGLVIKVGSKLGLIGYIGEVR”, the protein production result is on record as “failed”.
